Sequences and labels used below:
B1: CE115HA000 K52bR (antibody, name in Kabat numbering, V domains shown)
VH: QVQLVESGGGVVQPGRSLRLSCAASGFTFSNAWMHWVRQAPGKGLEWVAQIKARSNNYATYYAESVKGRFTISRDDSKNSLYLQMNSLKTEDTAVYYCRYVHYGAYYGVDAWGQGTTVTVSS
VL: DIVMTQSPLSLPVTPGEPASISCRSSQSLVHSNRNTYLHWYQQKPGQAPRLLIYKVSNRFSGVPDRFSGSGSGTDFTLKISRVEAEDVGVYYCGQGTQVPYTFGQGTKLEIK
B2: CE115HA000 N31Q (antibody, name in Kabat numbering, V domains shown)
VH: QVQLVESGGGVVQPGRSLRLSCAASGFTFSQAWMHWVRQAPGKGLEWVAQIKAKSNNYATYYAESVKGRFTISRDDSKNSLYLQMNSLKTEDTAVYYCRYVHYGAYYGVDAWGQGTTVTVSS
VL: DIVMTQSPLSLPVTPGEPASISCRSSQSLVHSNRNTYLHWYQQKPGQAPRLLIYKVSNRFSGVPDRFSGSGSGTDFTLKISRVEAEDVGVYYCGQGTQVPYTFGQGTKLEIK
B3: CE115HA000 K64Q (antibody, name in Kabat numbering, V domains shown)
VH: QVQLVESGGGVVQPGRSLRLSCAASGFTFSNAWMHWVRQAPGKGLEWVAQIKAKSNNYATYYAESVQGRFTISRDDSKNSLYLQMNSLKTEDTAVYYCRYVHYGAYYGVDAWGQGTTVTVSS
VL: DIVMTQSPLSLPVTPGEPASISCRSSQSLVHSNRNTYLHWYQQKPGQAPRLLIYKVSNRFSGVPDRFSGSGSGTDFTLKISRVEAEDVGVYYCGQGTQVPYTFGQGTKLEIK
B4: CE115HA000 K64E (antibody, name in Kabat numbering, V domains shown)
VH: QVQLVESGGGVVQPGRSLRLSCAASGFTFSNAWMHWVRQAPGKGLEWVAQIKAKSNNYATYYAESVEGRFTISRDDSKNSLYLQMNSLKTEDTAVYYCRYVHYGAYYGVDAWGQGTTVTVSS
VL: DIVMTQSPLSLPVTPGEPASISCRSSQSLVHSNRNTYLHWYQQKPGQAPRLLIYKVSNRFSGVPDRFSGSGSGTDFTLKISRVEAEDVGVYYCGQGTQVPYTFGQGTKLEIK
B5: CE115HA000 K64A (antibody, name in Kabat numbering, V domains shown)
VH: QVQLVESGGGVVQPGRSLRLSCAASGFTFSNAWMHWVRQAPGKGLEWVAQIKAKSNNYATYYAESVAGRFTISRDDSKNSLYLQMNSLKTEDTAVYYCRYVHYGAYYGVDAWGQGTTVTVSS
VL: DIVMTQSPLSLPVTPGEPASISCRSSQSLVHSNRNTYLHWYQQKPGQAPRLLIYKVSNRFSGVPDRFSGSGSGTDFTLKISRVEAEDVGVYYCGQGTQVPYTFGQGTKLEIK
B6: CE115HA000 K64D (antibody, name in Kabat numbering, V domains shown)
VH: QVQLVESGGGVVQPGRSLRLSCAASGFTFSNAWMHWVRQAPGKGLEWVAQIKAKSNNYATYYAESVDGRFTISRDDSKNSLYLQMNSLKTEDTAVYYCRYVHYGAYYGVDAWGQGTTVTVSS
VL: DIVMTQSPLSLPVTPGEPASISCRSSQSLVHSNRNTYLHWYQQKPGQAPRLLIYKVSNRFSGVPDRFSGSGSGTDFTLKISRVEAEDVGVYYCGQGTQVPYTFGQGTKLEIK
B7: CE115HA000 N31F (antibody, name in Kabat numbering, V domains shown)
VH: QVQLVESGGGVVQPGRSLRLSCAASGFTFSFAWMHWVRQAPGKGLEWVAQIKAKSNNYATYYAESVKGRFTISRDDSKNSLYLQMNSLKTEDTAVYYCRYVHYGAYYGVDAWGQGTTVTVSS
VL: DIVMTQSPLSLPVTPGEPASISCRSSQSLVHSNRNTYLHWYQQKPGQAPRLLIYKVSNRFSGVPDRFSGSGSGTDFTLKISRVEAEDVGVYYCGQGTQVPYTFGQGTKLEIK
B8: CE115HA000 N31I (antibody, name in Kabat numbering, V domains shown)
VH: QVQLVESGGGVVQPGRSLRLSCAASGFTFSIAWMHWVRQAPGKGLEWVAQIKAKSNNYATYYAESVKGRFTISRDDSKNSLYLQMNSLKTEDTAVYYCRYVHYGAYYGVDAWGQGTTVTVSS
VL: DIVMTQSPLSLPVTPGEPASISCRSSQSLVHSNRNTYLHWYQQKPGQAPRLLIYKVSNRFSGVPDRFSGSGSGTDFTLKISRVEAEDVGVYYCGQGTQVPYTFGQGTKLEIK
B9: CE115HA000 K75T (antibody, name in Kabat numbering, V domains shown)
VH: QVQLVESGGGVVQPGRSLRLSCAASGFTFSNAWMHWVRQAPGKGLEWVAQIKAKSNNYATYYAESVKGRFTISRDDSTNSLYLQMNSLKTEDTAVYYCRYVHYGAYYGVDAWGQGTTVTVSS
VL: DIVMTQSPLSLPVTPGEPASISCRSSQSLVHSNRNTYLHWYQQKPGQAPRLLIYKVSNRFSGVPDRFSGSGSGTDFTLKISRVEAEDVGVYYCGQGTQVPYTFGQGTKLEIK
B10: CE115HA000 K52bY (antibody, name in Kabat numbering, V domains shown)
VH: QVQLVESGGGVVQPGRSLRLSCAASGFTFSNAWMHWVRQAPGKGLEWVAQIKAYSNNYATYYAESVKGRFTISRDDSKNSLYLQMNSLKTEDTAVYYCRYVHYGAYYGVDAWGQGTTVTVSS
VL: DIVMTQSPLSLPVTPGEPASISCRSSQSLVHSNRNTYLHWYQQKPGQAPRLLIYKVSNRFSGVPDRFSGSGSGTDFTLKISRVEAEDVGVYYCGQGTQVPYTFGQGTKLEIK
B11: CE115HA000 N31G (antibody, name in Kabat numbering, V domains shown)
VH: QVQLVESGGGVVQPGRSLRLSCAASGFTFSGAWMHWVRQAPGKGLEWVAQIKAKSNNYATYYAESVKGRFTISRDDSKNSLYLQMNSLKTEDTAVYYCRYVHYGAYYGVDAWGQGTTVTVSS
VL: DIVMTQSPLSLPVTPGEPASISCRSSQSLVHSNRNTYLHWYQQKPGQAPRLLIYKVSNRFSGVPDRFSGSGSGTDFTLKISRVEAEDVGVYYCGQGTQVPYTFGQGTKLEIK
B12: CE115HA000 N31H (antibody, name in Kabat numbering, V domains shown)
VH: QVQLVESGGGVVQPGRSLRLSCAASGFTFSHAWMHWVRQAPGKGLEWVAQIKAKSNNYATYYAESVKGRFTISRDDSKNSLYLQMNSLKTEDTAVYYCRYVHYGAYYGVDAWGQGTTVTVSS
VL: DIVMTQSPLSLPVTPGEPASISCRSSQSLVHSNRNTYLHWYQQKPGQAPRLLIYKVSNRFSGVPDRFSGSGSGTDFTLKISRVEAEDVGVYYCGQGTQVPYTFGQGTKLEIK
B13: CE115HA000 N31A (antibody, name in Kabat numbering, V domains shown)
VH: QVQLVESGGGVVQPGRSLRLSCAASGFTFSAAWMHWVRQAPGKGLEWVAQIKAKSNNYATYYAESVKGRFTISRDDSKNSLYLQMNSLKTEDTAVYYCRYVHYGAYYGVDAWGQGTTVTVSS
VL: DIVMTQSPLSLPVTPGEPASISCRSSQSLVHSNRNTYLHWYQQKPGQAPRLLIYKVSNRFSGVPDRFSGSGSGTDFTLKISRVEAEDVGVYYCGQGTQVPYTFGQGTKLEIK
B14: CE115HA000 N31D (antibody, name in Kabat numbering, V domains shown)
VH: QVQLVESGGGVVQPGRSLRLSCAASGFTFSDAWMHWVRQAPGKGLEWVAQIKAKSNNYATYYAESVKGRFTISRDDSKNSLYLQMNSLKTEDTAVYYCRYVHYGAYYGVDAWGQGTTVTVSS
VL: DIVMTQSPLSLPVTPGEPASISCRSSQSLVHSNRNTYLHWYQQKPGQAPRLLIYKVSNRFSGVPDRFSGSGSGTDFTLKISRVEAEDVGVYYCGQGTQVPYTFGQGTKLEIK
B15: CE115HA000 K64S (antibody, name in Kabat numbering, V domains shown)
VH: QVQLVESGGGVVQPGRSLRLSCAASGFTFSNAWMHWVRQAPGKGLEWVAQIKAKSNNYATYYAESVSGRFTISRDDSKNSLYLQMNSLKTEDTAVYYCRYVHYGAYYGVDAWGQGTTVTVSS
VL: DIVMTQSPLSLPVTPGEPASISCRSSQSLVHSNRNTYLHWYQQKPGQAPRLLIYKVSNRFSGVPDRFSGSGSGTDFTLKISRVEAEDVGVYYCGQGTQVPYTFGQGTKLEIK
B16: CE115HA000 N31K (antibody, name in Kabat numbering, V domains shown)
VH: QVQLVESGGGVVQPGRSLRLSCAASGFTFSKAWMHWVRQAPGKGLEWVAQIKAKSNNYATYYAESVKGRFTISRDDSKNSLYLQMNSLKTEDTAVYYCRYVHYGAYYGVDAWGQGTTVTVSS
VL: DIVMTQSPLSLPVTPGEPASISCRSSQSLVHSNRNTYLHWYQQKPGQAPRLLIYKVSNRFSGVPDRFSGSGSGTDFTLKISRVEAEDVGVYYCGQGTQVPYTFGQGTKLEIK
B17: CE115HA000 N31S (antibody, name in Kabat numbering, V domains shown)
VH: QVQLVESGGGVVQPGRSLRLSCAASGFTFSSAWMHWVRQAPGKGLEWVAQIKAKSNNYATYYAESVKGRFTISRDDSKNSLYLQMNSLKTEDTAVYYCRYVHYGAYYGVDAWGQGTTVTVSS
VL: DIVMTQSPLSLPVTPGEPASISCRSSQSLVHSNRNTYLHWYQQKPGQAPRLLIYKVSNRFSGVPDRFSGSGSGTDFTLKISRVEAEDVGVYYCGQGTQVPYTFGQGTKLEIK
B18: CE115HA000 N31R (antibody, name in Kabat numbering, V domains shown)
VH: QVQLVESGGGVVQPGRSLRLSCAASGFTFSRAWMHWVRQAPGKGLEWVAQIKAKSNNYATYYAESVKGRFTISRDDSKNSLYLQMNSLKTEDTAVYYCRYVHYGAYYGVDAWGQGTTVTVSS
VL: DIVMTQSPLSLPVTPGEPASISCRSSQSLVHSNRNTYLHWYQQKPGQAPRLLIYKVSNRFSGVPDRFSGSGSGTDFTLKISRVEAEDVGVYYCGQGTQVPYTFGQGTKLEIK
B19: CE115HA000 K52bS (antibody, name in Kabat numbering, V domains shown)
VH: QVQLVESGGGVVQPGRSLRLSCAASGFTFSNAWMHWVRQAPGKGLEWVAQIKASSNNYATYYAESVKGRFTISRDDSKNSLYLQMNSLKTEDTAVYYCRYVHYGAYYGVDAWGQGTTVTVSS
VL: DIVMTQSPLSLPVTPGEPASISCRSSQSLVHSNRNTYLHWYQQKPGQAPRLLIYKVSNRFSGVPDRFSGSGSGTDFTLKISRVEAEDVGVYYCGQGTQVPYTFGQGTKLEIK
B20: CE115HA000 L78I (antibody, name in Kabat numbering, V domains shown)
VH: QVQLVESGGGVVQPGRSLRLSCAASGFTFSNAWMHWVRQAPGKGLEWVAQIKAKSNNYATYYAESVKGRFTISRDDSKNSIYLQMNSLKTEDTAVYYCRYVHYGAYYGVDAWGQGTTVTVSS
VL: DIVMTQSPLSLPVTPGEPASISCRSSQSLVHSNRNTYLHWYQQKPGQAPRLLIYKVSNRFSGVPDRFSGSGSGTDFTLKISRVEAEDVGVYYCGQGTQVPYTFGQGTKLEIK
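Note: biacore SPR with antibody variants flowed as analyte over amine-coupled CD3ε homodimer on a CM chip, bound amount of each single-residue H chain variant over that of parent.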

The target of this experiment is T1, CD3ε homodimer protein (human, UniProt P07766 23-126, limits assumed, sulfo-tag or biotin label in some ECL assays).
T1 construct: also called human CD3ε homodimer protein; CD3 (CD3ε)
T1 sequence (P07766 23-126 limits assumed): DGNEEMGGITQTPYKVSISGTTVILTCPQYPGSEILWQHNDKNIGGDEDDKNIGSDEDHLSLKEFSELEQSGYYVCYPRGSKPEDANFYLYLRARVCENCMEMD
Nature of the experiment: SPR, CD3ε homodimer on chip. (In general: SPR reads the build-up and loss of mass on a sensor chip optically.)
For the molecule B1, the “ratio of amounts bound vs CE115HA000” value was found to be 1.11. Regarding B2, the “ratio of amounts bound vs CE115HA000” value is 0.49. With B3, the “ratio of amounts bound vs CE115HA000” value came to 0.89. The result for B4 reads 0.74; that for B5, 0.32; that for B6, 0.72. The result for B7 reads 0.62. With B8 the figure was 0.81; with B9, 9.34. On to B10, for which the “ratio of amounts bound vs CE115HA000” value is 0.74. On to B11, for which the “ratio of amounts bound vs CE115HA000” value amounted to 0.39. As for B12, the “ratio of amounts bound vs CE115HA000” value came out at 0.68. The result for B13 reads 0.5; that for B14, 0.37; that for B15, 0.84. Consider B16, for which the “ratio of amounts bound vs CE115HA000” value is 1.01. With B17 the figure was 0.81; with B18, 1.14; with B19, 0.68. With B20 the figure was 1.34.

Source of the values: patent US20220040297A1 (Chugai, published 2022).
